Laboratory results taken from article PMC5762396 (Archives of biochemistry and biophysics, 2017).

Molecular target: G-actin (WT α-skeletal muscle actin from chicken) (chicken, UniProt P68139 1-377)
Assay: atomic force microscopy

| Binder | peak value of unbinding force [pN] |
| --- | --- |
| Tmod2_(1-346) (domain or fragment) MALPFQKGLEKYKNIDEDELLGKLSEEELKQLENVLDDLDPESATLPAGFRQKDQTQKAATGPFDREHLLMYLEKEALEQKDREDFVPFTGEKKGRVFIPKEKPVETRKEEKVTLDPELEEALASASDTELYDLAAVLGVHNLLNNPKFDEETTNGEGRKGPVRNVVKGEKAKPVFEEPPNPTNVEASLQQMKANDPSLQEVNLNNIKNIPIPTLKEFAKSLETNTHVKKFSLAATRSNDPVALAFAEMLKVNKTLKSLNVESNFITGTGILALVEALRENDTLTEIKIDNQRQQLGTAVEMEIAQMLEENSRILKFGYQFTKQGPRTRVAAAITKNNDLVRKKRV | 64 ± 3.6 |
| Tmod2[L73D] (natural protein) MALPFQKGLEKYKNIDEDELLGKLSEEELKQLENVLDDLDPESATLPAGFRQKDQTQKAATGPFDREHLLMYDEKEALEQKDREDFVPFTGEKKGRVFIPKEKPVETRKEEKVTLDPELEEALASASDTELYDLAAVLGVHNLLNNPKFDEETTNGEGRKGPVRNVVKGEKAKPVFEEPPNPTNVEASLQQMKANDPSLQEVNLNNIKNIPIPTLKEFAKSLETNTHVKKFSLAATRSNDPVALAFAEMLKVNKTLKSLNVESNFITGTGILALVEALRENDTLTEIKIDNQRQQLGTAVEMEIAQMLEENSRILKFGYQFTKQGPRTRVAAAITKNNDLVRKKRVEGDRR | 105 ± 2.2 |
